From patent publication US20190127434

Each protein was assayed against K6UbKMRC011.

Protein | cleavage by ubiquitin cleavage enzymes, SDS-PAGE analysis (10 mg/L enzyme, 37 C, 12 hours)
UCH-L3, human recombinant (protein) MEGQRWLPLEANPEVTNQFLKQLGLHPNWQFVDVYGMDPELLSMVPRPVCAVLLLFPITEKYEVFRTEEEEKIKSQGQDVTSSVYFMKQTISNACGTIGLIHAIANNKDKMHFESGSTLKKFLEESVSMSPEERARYLENYDAIRVTHETSAHEGQTEAPSIDEKVDLHFIALVHVDGHLYELDGRKPFPINHGETSDETLLEDAIEVCKKFMERDPDELRFNAIALSAA | the refolded K6UbKMRC011 was cleaved by the ubiquitin cleavage enzymes shown in Table 2 and correctly separated into K6Ub and KMRC011
Recombinant Human USP2 Catalytic Domain (protein) NSKSAQGLAGLRNLGNTCFMNSILQCLSNTRELRDYCLQRLYMRDLHHGSNAHTALVEEFAKLIQTIWTSSPNDVVSPSEFKTQIQRYAPRFVGYNQQDAQEFLRFLLDGLHNEVNRVTLRPKSNPENLDHLPDDEKGRQMWRKYLEREDSRIGDLFVGQLKSSLTCTDCGYCSTVFDPFWDLSLPIAKRGYPEVTLMDCMRLFTKEDVLDGDEKPTCCRCRGRKRCIKKFSIQRFPKILVLHLKRFSESRIRTSKLTTFVNFPLRDLDLREFASENTNHAVYNLYAVSNHSGTTMGGHYTAYCRSPGTGEWHTFNDSSVTPMSSSQVRTSDAYLLFYELASPPSRM | the refolded K6UbKMRC011 was cleaved by the ubiquitin cleavage enzymes shown in Table 2 and correctly separated into K6Ub and KMRC011
Recombinant Human UCH-L5/UCH37 (protein) MTGNAGEWCLMESDPGVFTELIKGFGCRGAQVEEIWSLEPENFEKLKPVHGLIFLFKWQPGEEPAGSVVQDSRLDTIFFAKQVINNACATQAIVSVLLNCTHQDVHLGETLSEFKEFSQSFDAAMKGLALSNSDVIRQVHNSFARQQMFEFDTKTSAKEEDAFHFVSYVPVNGRLYELDGLREGPIDLGACNQDDWISAVRPVIEKRIQKYSEGEIRFNLMAIVSDRKMIYEQKIAELQRQLAEEEPMDTDQGNSMLSAIQSEVAKNQMLIEEEVQKLKRYKIENIRRKHNYLPFIMELLKTLAEHQQLIPLVEKAKEKQNAKKAQETK | the refolded K6UbKMRC011 was cleaved by the ubiquitin cleavage enzymes shown in Table 2 and correctly separated into K6Ub and KMRC011
